The record followed here is publication PMC3285596 (PLoS Pathogens, 2012).

In this assay the target is T1, STAT1_(1–683), truncated, unphosphorylated human STAT1 (human, UniProt P42224 1-683).
T1 construct: also called unphosphorylated STAT1_(1–683); not shown: HA, C-terminal, kept
T1 sequence (looked up): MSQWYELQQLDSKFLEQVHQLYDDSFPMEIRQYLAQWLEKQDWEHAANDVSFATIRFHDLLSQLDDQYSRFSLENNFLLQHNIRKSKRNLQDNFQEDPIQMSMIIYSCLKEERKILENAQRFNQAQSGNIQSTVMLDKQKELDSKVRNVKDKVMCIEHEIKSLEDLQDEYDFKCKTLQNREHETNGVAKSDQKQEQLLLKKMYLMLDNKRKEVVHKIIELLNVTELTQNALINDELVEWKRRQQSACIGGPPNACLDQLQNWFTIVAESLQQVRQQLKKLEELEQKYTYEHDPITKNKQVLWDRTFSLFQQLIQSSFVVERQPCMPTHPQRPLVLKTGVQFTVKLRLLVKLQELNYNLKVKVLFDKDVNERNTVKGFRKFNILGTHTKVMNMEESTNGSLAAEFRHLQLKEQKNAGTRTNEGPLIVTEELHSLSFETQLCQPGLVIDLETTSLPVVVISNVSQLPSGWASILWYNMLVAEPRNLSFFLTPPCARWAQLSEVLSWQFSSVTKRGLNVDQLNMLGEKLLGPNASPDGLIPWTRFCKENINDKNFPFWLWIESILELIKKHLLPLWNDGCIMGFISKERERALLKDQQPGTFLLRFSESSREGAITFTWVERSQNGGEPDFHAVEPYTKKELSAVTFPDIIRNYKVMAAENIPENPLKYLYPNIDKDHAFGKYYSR
Description: ELISA. To be noted: both partners purified. For orientation: In an ELISA, binding on a coated surface is turned into a signal by an enzyme label.

B1: Ebola virus (Zaire) VP24 residues 1-233 (EBOV_(1–233)) (domain or fragment)
chain: MAKATGRYNLISPKKDLEKGVVLSDLCNFLVSQTIQGWKVYWAGIEFDVTHKGMALLHRLKTNDFAPAWSMTRNLFPHLFQNPNSTIESPLWALRVILAAGIQDQLIDQSLIEPLAGALGLISDWLLTTNTNHFNMRTQRVKEQLSLKMLSLIRSNILKFINKLDALHVVNYNGLLSSIEIGTQNHTIIITRTNMGFLVELQEPDKSAMNRMKPGPAKFSLLHESTLKAFTQG
For B1, the binding result is listed as “binds”.
